Test results taken from patent US20250099635A1 (Janssen / Centocor, published 2025).

B1: KL2B467 (Fab) (Fab, V domains shown)
VH: QVQLVESGGGVVQPGRSLRLSCAASGFTFSYYGMHWVRQAPGKGLEWVAFISYDGSNKYYADSVKGRFTISRDNSKNTLYLQMNSLRAEDTAVYYCAHLPYSGSYWAFDYWGQGTQVTVSS
VL: QSVLTQPPSVSVAPGQTASITCGGDNIGSKSVHWYQQKPGQAPVLVVYDNSDRPSGIPERFSGSNSGTTATLTISRVEAGDEADYYCQVWDSSSDHPVVFGGGTKVTV
B2: KL2B242 (Fab) (Fab, V domains shown)
VH: QVQLQESGPGLVKPSETLSLTCTVSGGSISSYYWSWLRQPAGSGLEWIGRLYVSGFTNYNPSLKSRVTLSLDPSRNQLSLKLSSVTAADTAVYYCAGDSGNYWGWFDPWGQGTLVTVSS
VL: SYELTQPPSVSVSPGETASITCSGDQLGENYACWYQQKPGQSPVLVIYQDSKRPSGIPERFSGSNSGNTATLTISGTQALDEADYYCQAWDNSIVVFGGGTKLTVL
B3: KL2B30 (Fab) (Fab, V domains shown)
VH: QVQLQESGPGLVKPSETLSLTCTVSGGSISSYYWSWIRQPPGKGLEWIGYIYYSGSTNYNPSLKSRVTISVDTSKNQFSLKLSSVTAADTAVYYCAGTTIFGVVTPNFYYGMDVWGQGTTVTVSS
VL: DIQMTQSPSFLSASVGDRVTITCRASQGISSYLAWYQQKPGKAPKFLIYAASTLQSGVPSRFSGSGSGTEFTLTISSLQPEDFATYYCQQLNSYPLTFGGGTKVEIK
B4: KL2B494 (Fab) (Fab, V domains shown)
VH: QVQLVESGGGLVQPGGSLRLSCAASGFTFSHYAMSWVRQAPGKGLEWVSTIGGSGGSTYYADSVKGRFTISRDNSKNTLYLQMNSLRAEDTAVYYCAKPHIVMVTALLYDGMDVWGQGTMVTVSS
VL: SSELTQPPSVSVAPGQTARITCGGNNIGSKSVHWYQQKPGQAPVLVVYDDSDRPSGIPERFSGSNSGNTATLTISRVEAGDEADYYCQVWDSSSDHVVFGGGTKLTVL
B5: KL2B53 (Fab) (Fab, V domains shown)
VH: EVQLVESGGGVVQPGRSLRLSCVASGFTFSSYDIHWVRQAPGKGLEWVAIISYDGSKKDYTDSVKGRFTISRDNSKNTLYLQMDSLRVEDSAVYSCARESGWSHYYYYGMDVWGQGTMVTVSS
VL: DIVMTQSPSSLSASVGDRVTITCRASQDISNYLAWYQQKPGKVPKFLIYAASTLHSGVPSRFSGSGSGTDFTLTISSLQPEDVATYYCQKYNSAPYTFGQGTRLEIK

target: T1, soluble human kallikrein related peptidase 2 (hK2) protein (human, UniProt P20151 19-261); experiment: SPR; antibody captured by anti-Fc antibody, soluble hK2 injected; 1:1 Langmuir fit
T1 construct: The stated signal peptide is left out here; also called soluble hK2; KLK2
T1 sequence (P20151 19-261): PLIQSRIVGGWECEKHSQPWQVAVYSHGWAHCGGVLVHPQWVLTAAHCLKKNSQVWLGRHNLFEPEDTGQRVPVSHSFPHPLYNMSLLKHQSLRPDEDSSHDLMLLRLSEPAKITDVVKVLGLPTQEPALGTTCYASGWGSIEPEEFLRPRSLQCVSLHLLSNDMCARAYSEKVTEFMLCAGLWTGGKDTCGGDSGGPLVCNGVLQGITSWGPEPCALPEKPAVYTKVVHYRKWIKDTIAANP
Procedure: Affinity of selected hK2 antibodies for soluble hK2 was measured by surface plasmon resonance (SPR). […] Antibodies were captured on a sensor chip coated with an anti-Fc antibody followed by injection of soluble hK2 at various concentrations and specified association and dissociation times. Post dissociation, the surface was regenerated with an appropriate solution to prepare for the next interaction. Kinetic information (on-rate and off-rate constants) were extracted by fitting sensorgrams to the 1:1 Langmuir model. Binding affinity (KD) are reported as the ratio of rate constants (koff/kₒₙ).

Row | Kd [pM] | Binder
1 | 78 | B1
2 | 40 | B2
3 | 460 | B3
4 | 53 | B4
5 | 80 | B5
